Measured values published in US20140274782A1, “AFFINITY REAGENTS AND METHODS FOR DETECTION, PURIFICATION, AND PROTEOMIC ANALYSIS OF METHYLATED PROTEINS” (The Board of Trustees of the Leland Stanford Junior …, priority 2013, published 2014).

Assays:
Assay in all cases: ProtoArray methylated with G9a SET domain
[1] = target: C2orf43, G9a-methylated (human) (UniProt Q9H6V9)
[2] = target: FTH1 (hit 104), G9a-methylated (human) (UniProt P02794)
[3] = target: TMEM32, G9a-methylated (human) (UniProt Q8N4V1)
[4] = target: UBE2D2, G9a-methylated (human) (UniProt P62837)
[5] = target: YPEL5, G9a-methylated (human) (UniProt P62699)
[6] = target: CD79A, G9a-methylated (human) (UniProt P11912)
[7] = target: CSF3, G9a-methylated (human) (UniProt P09919)
[8] = target: SEC22B, G9a-methylated (human) (UniProt O75396)
[9] = target: LARP6, G9a-methylated (human) (UniProt Q9BRS8)
[10] = target: KIFC1, G9a-methylated (human) (UniProt Q9BW19)
[11] = target: TMEM97, G9a-methylated (human) (UniProt Q5BJF2)
[12] = target: C11orf73, G9a-methylated (human) (UniProt Q53FT3)
[13] = target: ZNF695, G9a-methylated (human) (UniProt Q8IW36)
[14] = target: CDK10, G9a-methylated (human) (UniProt Q15131)
[15] = target: RTN1, G9a-methylated (human) (UniProt Q16799)
[16] = target: SSR4, G9a-methylated (human) (UniProt P51571)
[17] = target: SH3YL1 (clone MGC:12275), G9a-methylated (human) (UniProt Q96HL8)
[18] = target: PTCD2, G9a-methylated (human) (UniProt Q8WV60)
[19] = target: BHMT, G9a-methylated (human) (UniProt Q93088)
[20] = target: MRPL21, G9a-methylated (human) (UniProt Q7Z2W9)
[21] = target: TCTA, G9a-methylated (human) (UniProt P57738)
[22] = target: KRR1, G9a-methylated (human) (UniProt Q13601)
[23] = target: SMYD3, G9a-methylated (human) (UniProt Q9H7B4)
[24] = target: GAL, G9a-methylated (human) (UniProt P22466)
[25] = target: PSMA8, G9a-methylated (human) (UniProt Q8TAA3)
[26] = target: C10orf58, G9a-methylated (human) (UniProt Q9BRX8)
[27] = target: DNTT, G9a-methylated (human) (UniProt P04053)
[28] = target: HPCAL4, G9a-methylated (human) (UniProt Q9UM19)
[29] = target: LYPLAL1, G9a-methylated (human) (UniProt Q5VWZ2)
[30] = target: FKBP14, G9a-methylated (human) (UniProt Q9NWM8)
[31] = target: CLDN15, G9a-methylated (human) (UniProt P56746)
[32] = target: CDC2, G9a-methylated (human) (UniProt P06493)
[33] = target: TGDS, G9a-methylated (human) (UniProt O95455)
[34] = target: MGC10433 (RNA-binding protein 42), G9a-methylated (human) (UniProt Q9BTD8)
[35] = target: CALN1, G9a-methylated (human) (UniProt Q9BXU9)
[36] = target: MOBKL3, G9a-methylated (human) (UniProt Q9Y3A3)
[37] = target: VPS29, G9a-methylated (human) (UniProt Q9UBQ0)
[38] = target: RASSF4, G9a-methylated (human) (UniProt Q9H2L5)
Sequence of RASSF4, G9a-methylated (human) (Q9H2L5 whole entry): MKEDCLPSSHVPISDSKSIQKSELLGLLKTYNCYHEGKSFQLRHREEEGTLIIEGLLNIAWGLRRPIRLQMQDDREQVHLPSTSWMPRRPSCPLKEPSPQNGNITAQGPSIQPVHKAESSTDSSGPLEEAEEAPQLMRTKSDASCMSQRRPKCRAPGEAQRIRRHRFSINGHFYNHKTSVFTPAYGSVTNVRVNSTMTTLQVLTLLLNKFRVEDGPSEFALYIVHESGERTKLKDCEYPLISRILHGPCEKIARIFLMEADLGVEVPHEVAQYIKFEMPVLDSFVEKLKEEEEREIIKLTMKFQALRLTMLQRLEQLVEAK

Sequence of FTH1 (hit 104), G9a-methylated (human) (P02794 whole entry): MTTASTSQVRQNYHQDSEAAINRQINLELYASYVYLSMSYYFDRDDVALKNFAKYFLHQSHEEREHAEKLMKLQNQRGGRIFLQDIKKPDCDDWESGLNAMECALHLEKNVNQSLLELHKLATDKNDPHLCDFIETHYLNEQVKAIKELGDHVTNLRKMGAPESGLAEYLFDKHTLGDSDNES
Sequence of SH3YL1 (clone MGC:12275), G9a-methylated (human) (Q96HL8 whole entry): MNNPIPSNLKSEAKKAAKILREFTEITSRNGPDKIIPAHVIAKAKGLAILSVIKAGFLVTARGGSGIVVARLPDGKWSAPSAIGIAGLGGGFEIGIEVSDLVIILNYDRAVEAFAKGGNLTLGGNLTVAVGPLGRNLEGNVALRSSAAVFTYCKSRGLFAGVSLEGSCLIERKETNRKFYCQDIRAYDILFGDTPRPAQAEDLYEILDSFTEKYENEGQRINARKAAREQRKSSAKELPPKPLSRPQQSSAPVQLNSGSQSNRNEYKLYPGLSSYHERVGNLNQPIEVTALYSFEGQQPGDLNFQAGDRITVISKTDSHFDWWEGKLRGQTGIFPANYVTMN
Sequence of YPEL5, G9a-methylated (human) (P62699 whole entry): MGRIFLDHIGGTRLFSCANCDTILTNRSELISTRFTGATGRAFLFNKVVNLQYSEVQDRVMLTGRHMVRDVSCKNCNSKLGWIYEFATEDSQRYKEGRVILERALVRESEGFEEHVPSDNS
Sequence of PTCD2, G9a-methylated (human) (Q8WV60 whole entry): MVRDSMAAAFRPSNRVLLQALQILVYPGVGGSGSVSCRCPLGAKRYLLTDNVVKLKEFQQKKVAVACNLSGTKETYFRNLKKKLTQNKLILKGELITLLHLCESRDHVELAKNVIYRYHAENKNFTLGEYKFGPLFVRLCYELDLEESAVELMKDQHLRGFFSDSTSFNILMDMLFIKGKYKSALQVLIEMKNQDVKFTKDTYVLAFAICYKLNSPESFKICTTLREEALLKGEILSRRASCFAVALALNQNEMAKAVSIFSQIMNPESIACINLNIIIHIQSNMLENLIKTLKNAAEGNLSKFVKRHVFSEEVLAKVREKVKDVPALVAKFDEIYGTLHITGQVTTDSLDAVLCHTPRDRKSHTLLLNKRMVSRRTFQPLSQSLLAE
Sequence of CDC2, G9a-methylated (human) (P06493 whole entry): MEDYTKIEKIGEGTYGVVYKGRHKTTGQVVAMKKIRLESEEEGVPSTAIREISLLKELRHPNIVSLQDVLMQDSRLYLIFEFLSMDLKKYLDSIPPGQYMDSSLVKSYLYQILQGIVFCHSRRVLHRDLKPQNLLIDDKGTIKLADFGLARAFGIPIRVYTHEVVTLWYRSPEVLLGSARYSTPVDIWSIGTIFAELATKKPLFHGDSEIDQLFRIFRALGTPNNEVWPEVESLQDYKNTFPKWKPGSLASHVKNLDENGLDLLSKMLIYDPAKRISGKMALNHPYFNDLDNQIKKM
Sequence of C10orf58, G9a-methylated (human) (Q9BRX8 whole entry): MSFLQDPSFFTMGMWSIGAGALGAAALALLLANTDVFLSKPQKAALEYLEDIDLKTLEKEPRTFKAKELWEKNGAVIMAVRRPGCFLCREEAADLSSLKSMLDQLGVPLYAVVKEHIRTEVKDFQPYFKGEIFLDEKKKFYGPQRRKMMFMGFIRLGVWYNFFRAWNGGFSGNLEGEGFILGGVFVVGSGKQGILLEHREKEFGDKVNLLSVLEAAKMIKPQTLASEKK
Sequence of TMEM32, G9a-methylated (human) (Q8N4V1 whole entry): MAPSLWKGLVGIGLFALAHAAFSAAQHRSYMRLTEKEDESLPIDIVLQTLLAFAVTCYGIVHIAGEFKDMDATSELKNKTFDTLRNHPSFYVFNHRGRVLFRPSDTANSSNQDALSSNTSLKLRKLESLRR
Sequence of C2orf43, G9a-methylated (human) (Q9H6V9 whole entry): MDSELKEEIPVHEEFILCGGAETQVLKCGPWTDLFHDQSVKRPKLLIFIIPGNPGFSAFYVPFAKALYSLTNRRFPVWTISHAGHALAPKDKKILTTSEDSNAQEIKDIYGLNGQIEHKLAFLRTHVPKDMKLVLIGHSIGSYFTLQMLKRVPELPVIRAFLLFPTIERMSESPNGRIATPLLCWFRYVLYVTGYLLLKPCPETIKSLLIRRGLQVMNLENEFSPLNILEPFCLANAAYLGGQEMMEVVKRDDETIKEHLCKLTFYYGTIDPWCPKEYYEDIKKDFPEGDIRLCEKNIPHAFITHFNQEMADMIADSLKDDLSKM
Sequence of CLDN15, G9a-methylated (human) (P56746 whole entry): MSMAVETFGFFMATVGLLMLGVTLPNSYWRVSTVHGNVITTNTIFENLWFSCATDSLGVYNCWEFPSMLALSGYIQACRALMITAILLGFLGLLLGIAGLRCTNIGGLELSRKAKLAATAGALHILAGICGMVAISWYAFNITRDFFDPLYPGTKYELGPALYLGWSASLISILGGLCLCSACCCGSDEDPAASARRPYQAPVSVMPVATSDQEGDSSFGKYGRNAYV
Sequence of PSMA8, G9a-methylated (human) (Q8TAA3 whole entry): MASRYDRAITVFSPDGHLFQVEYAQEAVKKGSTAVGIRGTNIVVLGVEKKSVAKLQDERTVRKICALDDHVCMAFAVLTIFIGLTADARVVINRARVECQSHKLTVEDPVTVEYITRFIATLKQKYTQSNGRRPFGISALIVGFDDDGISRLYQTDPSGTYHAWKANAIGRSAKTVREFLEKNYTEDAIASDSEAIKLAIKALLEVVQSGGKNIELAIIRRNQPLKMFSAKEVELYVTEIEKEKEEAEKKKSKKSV
Sequence of SEC22B, G9a-methylated (human) (O75396 whole entry): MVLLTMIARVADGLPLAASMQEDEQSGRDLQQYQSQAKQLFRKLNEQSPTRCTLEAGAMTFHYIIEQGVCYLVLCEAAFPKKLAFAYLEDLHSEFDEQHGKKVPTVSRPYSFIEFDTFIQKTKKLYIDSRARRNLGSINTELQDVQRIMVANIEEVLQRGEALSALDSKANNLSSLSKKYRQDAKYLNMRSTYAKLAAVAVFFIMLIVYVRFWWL
Sequence of DNTT, G9a-methylated (human) (P04053 whole entry): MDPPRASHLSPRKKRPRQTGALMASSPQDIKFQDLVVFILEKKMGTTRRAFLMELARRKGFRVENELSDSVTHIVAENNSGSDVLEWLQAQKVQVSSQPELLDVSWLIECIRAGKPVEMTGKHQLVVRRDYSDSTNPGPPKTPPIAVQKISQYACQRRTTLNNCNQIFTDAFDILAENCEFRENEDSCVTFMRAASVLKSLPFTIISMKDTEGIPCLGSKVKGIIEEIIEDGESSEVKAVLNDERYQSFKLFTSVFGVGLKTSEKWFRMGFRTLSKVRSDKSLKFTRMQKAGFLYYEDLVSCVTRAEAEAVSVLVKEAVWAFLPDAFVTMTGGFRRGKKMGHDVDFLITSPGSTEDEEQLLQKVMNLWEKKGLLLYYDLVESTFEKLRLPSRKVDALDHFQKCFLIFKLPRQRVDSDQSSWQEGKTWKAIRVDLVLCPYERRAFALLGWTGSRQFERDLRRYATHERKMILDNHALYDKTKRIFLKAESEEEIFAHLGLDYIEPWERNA
Sequence of LYPLAL1, G9a-methylated (human) (Q5VWZ2 whole entry): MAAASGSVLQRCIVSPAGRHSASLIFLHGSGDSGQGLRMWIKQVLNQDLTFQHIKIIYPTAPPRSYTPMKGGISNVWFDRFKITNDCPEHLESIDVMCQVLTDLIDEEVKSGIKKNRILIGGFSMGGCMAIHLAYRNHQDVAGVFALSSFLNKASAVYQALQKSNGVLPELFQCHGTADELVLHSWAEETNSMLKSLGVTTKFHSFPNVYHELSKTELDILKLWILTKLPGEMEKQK
Sequence of BHMT, G9a-methylated (human) (Q93088 whole entry): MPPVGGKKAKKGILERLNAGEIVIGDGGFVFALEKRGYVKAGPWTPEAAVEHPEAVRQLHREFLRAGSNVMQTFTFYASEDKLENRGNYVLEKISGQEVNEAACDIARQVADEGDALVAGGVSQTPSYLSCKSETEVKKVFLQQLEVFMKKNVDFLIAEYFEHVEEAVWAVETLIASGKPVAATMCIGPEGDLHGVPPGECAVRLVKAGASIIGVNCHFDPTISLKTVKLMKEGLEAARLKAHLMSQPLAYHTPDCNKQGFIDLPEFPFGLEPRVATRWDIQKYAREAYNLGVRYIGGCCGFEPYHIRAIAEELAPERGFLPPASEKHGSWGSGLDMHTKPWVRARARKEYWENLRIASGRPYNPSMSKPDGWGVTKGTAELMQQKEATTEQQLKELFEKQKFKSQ
Sequence of RTN1, G9a-methylated (human) (Q16799 other isoform, or with tags, fused parts or gaps limits assumed): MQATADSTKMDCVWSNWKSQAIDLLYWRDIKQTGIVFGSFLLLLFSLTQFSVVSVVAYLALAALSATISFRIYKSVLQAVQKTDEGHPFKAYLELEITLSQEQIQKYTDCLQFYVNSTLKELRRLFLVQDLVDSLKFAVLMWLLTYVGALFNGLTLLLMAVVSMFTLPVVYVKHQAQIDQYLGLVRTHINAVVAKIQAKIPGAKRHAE
Sequence of TGDS, G9a-methylated (human) (O95455 whole entry): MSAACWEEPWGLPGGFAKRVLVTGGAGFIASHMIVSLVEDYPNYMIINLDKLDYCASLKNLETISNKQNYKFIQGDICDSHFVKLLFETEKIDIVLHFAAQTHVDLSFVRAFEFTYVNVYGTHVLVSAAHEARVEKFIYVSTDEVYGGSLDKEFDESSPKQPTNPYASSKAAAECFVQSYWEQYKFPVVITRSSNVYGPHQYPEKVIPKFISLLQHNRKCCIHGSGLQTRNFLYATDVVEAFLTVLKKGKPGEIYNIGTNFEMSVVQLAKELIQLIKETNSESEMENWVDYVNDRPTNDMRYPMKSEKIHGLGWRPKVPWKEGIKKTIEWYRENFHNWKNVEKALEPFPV

3× Flag-3×MBT (designed binder)
G9a Average SNR [1]: 11.9 | G9a Average SNR [2]: 30.4 | G9a Average SNR [3]: 13.6 | G9a Average SNR [4]: 37.2 | G9a Average SNR [5]: 13.4 | G9a Average SNR [6]: 13.8 | G9a Average SNR [7]: 19 | G9a Average SNR [8]: 12.6 | G9a Average SNR [9]: 15.6 | G9a Average SNR [10]: 63.2 | G9a Average SNR [11]: 21.2 | G9a Average SNR [12]: 13.5 | G9a Average SNR [13]: 20.3 | G9a Average SNR [14]: 13.6 | G9a Average SNR [15]: 14.7 | G9a Average SNR [16]: 14.4 | G9a Average SNR [17]: 12.9 | G9a Average SNR [18]: 19.4 | G9a Average SNR [19]: 16.6 | G9a Average SNR [20]: 23.3 | G9a Average SNR [21]: 16.4 | G9a Average SNR [22]: 29.8 | G9a Average SNR [23]: 17.6 | G9a Average SNR [24]: 13.1 | G9a Average SNR [25]: 13.1 | G9a Average SNR [26]: 17 | G9a Average SNR [27]: 49.9 | G9a Average SNR [28]: 11.5 | G9a Average SNR [29]: 15.7 | G9a Average SNR [30]: 15 | G9a Average SNR [31]: 25 | G9a Average SNR [32]: 25.3 | G9a Average SNR [33]: 13.6 | G9a Average SNR [34]: 14.1 | G9a Average SNR [35]: 18.6 | G9a Average SNR [36]: 13.6 | G9a Average SNR [37]: 16.6 | G9a Average SNR [38]: 15.7
